For one test, the target named is T1, human IL-23 (human, UniProt Q9NPF7 20-189; P29460 23-328).
T1 construct: Heterodimer p19/p40; in the ELISA captured on the plate through a biotinylated anti-p40 antibody (clone C8.6); also called cytokine IL-23 (eBioscience, 34-8239-85)
T1 sequence (looked up) 1: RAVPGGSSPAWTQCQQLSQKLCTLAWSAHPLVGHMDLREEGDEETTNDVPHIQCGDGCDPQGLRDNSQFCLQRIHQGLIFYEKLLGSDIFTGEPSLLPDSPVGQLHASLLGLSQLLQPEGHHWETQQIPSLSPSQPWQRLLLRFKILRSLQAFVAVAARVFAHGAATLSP
T1 sequence (looked up) 2: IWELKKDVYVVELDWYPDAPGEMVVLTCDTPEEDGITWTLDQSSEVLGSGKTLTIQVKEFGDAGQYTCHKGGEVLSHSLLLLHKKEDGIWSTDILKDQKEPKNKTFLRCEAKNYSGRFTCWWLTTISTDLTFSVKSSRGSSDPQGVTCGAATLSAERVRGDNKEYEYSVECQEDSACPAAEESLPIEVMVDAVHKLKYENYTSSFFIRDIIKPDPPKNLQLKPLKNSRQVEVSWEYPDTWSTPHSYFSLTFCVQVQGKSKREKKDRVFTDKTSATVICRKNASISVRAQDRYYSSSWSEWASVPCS
Kind of test: phage ELISA; IL-23 captured by anti-p40 antibody. The method, then: The set-up of the ELISA was as follows. Neutravidin was immobilized on the plate at a concentration of 0.010 mg/ml in PBS (0.100 ml) for 1 hour at room temperature (RT). Plates were washed 5 times with PBS containing 0.05% Tween 20 (PBST) for 5 min. Subsequently, 0.1 ml Biotinylated anti-p40 antibody (100 nM) was added to the plates in PBS containing 0.1% BSA and incubated overnight at 4° C. or at RT for 1 hour. After incubation, plates were washed 5 times with PBST and blocked with PBS containing 0.1% BSA and 0.5% gelatin (0.120 ml/well) for at least 1 hour at room temperature or overnight at 4° C. After washing 5 times with PBST, 100 nM IL-23 (target) was added to 0.1 ml PBS, 0.1% BSA. For individual negative controls no IL-23 was added (background).
In the meantime, the bacteria plates were centrifuged at 1700 rpm for 10 min to pellet the bacteria. Plates with the immobilized IL-23 were washed 5 times with PBST and 0.050 ml of PBS with 0.2% BSA were added to the plate together with 0.050 ml of the bacterial culture supernatant containing phage. Plates were incubated for 1 to 1.5 hours at room temperature while shaking. Shaking of the plates enhanced the ELISA signals.
A general note: An ELISA detects its analyte on a solid surface through an enzyme-linked reagent.

Test [1] deals with T2, human Flt3L (human, UniProt P49771 27-160, limits assumed).
T2 construct: Biotinylated form used in biopanning and phage ELISA; unlabelled in ITC and crystallography; also called hFlt3L; Flt3 ligand
T2 sequence (looked up): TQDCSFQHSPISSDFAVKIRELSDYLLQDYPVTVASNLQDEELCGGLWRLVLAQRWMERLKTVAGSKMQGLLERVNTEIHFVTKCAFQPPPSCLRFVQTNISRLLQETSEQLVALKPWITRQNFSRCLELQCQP
Kind of test: isothermal titration calorimetry, 37 C, triplicate. The method, then:
(§1) The binding of Alphabody hFlt3L_cl4 to the target hFlt3L was tested by isothermal titration calorimetry (ITC) in order to determine its dissociation constant (KD), thermodynamic parameters (ΔH, ΔS) and binding stoichiometry. Prior to the measurements, Alphabody and target samples were dialyzed against 20 mM HEPES buffer containing 150 mM NaCl, pH 7.4. The ITC measurements were performed in triplicate at a temperature of 37° C. In each experiment, hFlt3L, which exists as a stable dimer in solution, was loaded into the cell (at concentrations 3.0 μM, 6.5 μM and 7.0 μM of hFlt3L dimer, respectively) and hFlt3L_cl4 was loaded in the syringe (at concentrations of 41.35 μM, 89.62 μM and 89.62 μM, respectively). […] This implies that, since the concentrations of hFlt3L were given for the dimeric complex (hFlt3L)₂, only one hFlt3L_cl4 Alphabody binds to one hFlt3L dimer.
(Isothermal titration calorimetry measures the heat released or taken up as one component is titrated into another.)

The target in test [2] is T2, human Flt3L. In words: isothermal titration calorimetry, 37 C, triplicate; hFlt3L dimer in the cell, Alphabody in the syringe. The method, then:
as §1

B1: SEQ ID NO 73 (designed binder)
chain: GSIEQIQKFIASIQECIASIQKVIYAMTGGSGGSGGGSIEQIQKQIAAIQKQIAAIQKQIYAMTGSGGGGSGGSIEQIQKQIGAIAAQIIAIVEQIVAMTP
notes: Alphabody, AC12 library clone
On to B1, for which the binding result with human IL-23 was “binds”.

B2: SEQ ID NO 74 (designed binder)
chain: GSIEQIQKKIAYIQEMIALIQKGIYAMTGGSGGSGGGSIEQIQKQIAAIQKQIAAIQKQIYAMTGSGGGGSGGSIEQIQKQISAIAAQISAIIKQIMAMTP
notes: Alphabody, AC12 library clone
Regarding B2, in the test with human IL-23, the binding result is given as “binds”.

B3: SEQ ID NO 77 (designed binder)
chain: GSIEQIQKGIAAIQEWIATIQKRIYAMTGGSGGSGGGSIEQIQKQIAAIQKQIAAIQKQIYAMTGSGGGGSGGSIEQIQKQIRAITIQIIAIIQQIWAMTP
notes: Alphabody, AC12 library clone
On to B3, for which the binding result with human IL-23 is recorded as “binds”.

B4: hFlt3L_cl4 (designed binder)
chain: HMSIEEIQKQIAAIQKQIAAIQKQIYAMTGGSGGGSGGGSGGGSGMSIEEIQKQIAAIQKQIAAIQKQIYAMTGGSGGGSGGGSGGGSGMSIEEIQDQILNIQWQIHDIQQQIIVMTPGG
Take B4: in the test with human Flt3L [1], the Ka was determined as 4.95e+06 M⁻¹, the ΔG was -9.5 kcal/mol, the ΔH is -16.6 kcal/mol and the ΔS was -22.9 cal/(mol·K). In the test with human Flt3L [2], this molecule registered a Kd of 202 nM.

B5: SEQ ID NO 104 (designed binder)
chain: GSIEQIQKNIAYIQERIATIQKKIYRMTGGSGGSGGGGSGGSGGGSIEQIQKQIAAIQKQIAAIQKQIYAMTGSGGGGSGGSGGGGSGGSIEQIQKQIGAIAEQILAIVKQIRAMTP
notes: Alphabody, AC11b library clone
Turning to B5, in the test with human IL-23, the binding result was “binds”.

B6: SEQ ID NO 102 (designed binder)
chain: GSIEQIQKIIASIQEPIARIQKGIYRMTGGSGGSGGGGSGGSGGGSIEQIQKQIAAIQKQIAAIQKQIYAMTGSGGGGSGGSGGGGSGGSIEQIQKQIGAIAEQILAIFKQIRAMTP
notes: as for B5
In the case of B6, in the test with human IL-23, the binding result was “binds”.

B7: SEQ ID NO 103 (designed binder)
chain: GSIEQIQKPIASIQELIAMIQKAIYWMTGGSGGSGGGGSGGSGGGSIEQIQKQIAAIQKQIAAIQKQIYAMTGSGGGGSGGSGGGGSGGSIEQIQKQIVAISEQIMAIIKQIGAMTP
notes: as for B5
On to B7, for which the binding result with human IL-23 is on record as “binds”.

B8: SEQ ID NO 95 (designed binder)
chain: GSIEQIQKPIALIQERIATIQKLIYGMTGGSGGSGGGGSGGSGGGSIEQIQKQIAAIQKQIAAIQKQIYAMTGSGGGGSGGSGGGGSGGSIEQIQKQISAIAEQILAISKQIWAMTP
notes: as for B5
B8: the binding result in the test with human IL-23 is “binds”.

B9: SEQ ID NO 105 (designed binder)
chain: GSIEQIQKRIARIQEKIAWIQKPIYQMTGGSGGSGGGGSGGSGGGSIEQIQKQIAAIQKQIAAIQKQIYAMTGSGGGGSGGSGGGGSGGSIEQIQKQIRAIREQIGAILKQIKAMTP
notes: as for B5
Turning to B9, the binding result with human IL-23 is on record as “binds”.

B10: SEQ ID NO 107 (designed binder)
chain: GSIEQIQKPIARIQETIAIIQKTIYRMTGGSGGSGGGGSGGSGGGSIEQIQKQIAAIQKQIAAIQKQIYAMTGSGGGGSGGSGGGGSGGSIEQIQKQITAIREQIRAIWKQIPAMTP
notes: as for B5
B10: the binding result with human IL-23 is given as “binds”.

B11: SEQ ID NO 99 (designed binder)
chain: GSIEQIQKPIAEIQEIIARIQKKIYIMTGGSGGSGGGGSGGSGGGSIEQIQKQIAAIQKQIAAIQKQIYAMTGSGGGGSGGSGGGGSGGSIEQIQKQISAIGEQIFAIVKQIYAMTP
notes: as for B5
Take B11: in the test with human IL-23, the binding result is given as “binds”.

B12: SEQ ID NO 114 (designed binder)
chain: GSIEQIQKRIARIQEPIAGIQKRIYMMTGGSGGSGGGGSGGSGGGSIEQIQKQIAAIQKQIAAIQKQIYAMTGSGGGGSGGSGGGGSGGSIEQIQKQIRAIAEQIVAIAKQIVAMTP
notes: as for B5
With B12, the binding result with human IL-23 is given as “binds”.

B13: SEQ ID NO 96 (designed binder)
chain: GSIEQIQKWIACIQECIAGIQKEIYIMTGGSGGSGGGGSGGSGGGSIEQIQKQIAAIQKQIAAIQKQIYAMTGSGGGGSGGSGGGGSGGSIEQIQKQIRAISEQIYAIIKQISAMTP
notes: as for B5
For B13, the binding result with human IL-23 is “binds”.

B14: SEQ ID NO 122 (designed binder)
chain: GSIEQIQKRIAPIQESIAGIQKRIYRMTGGSGGSGGGGSGGSGGGSIEQIQKQIAAIQKQIAAIQKQIYAMTGSGGGGSGGSGGGGSGGSIEQIQKQIRAITEQIGAILKQIFAMTP
notes: as for B5
In the case of B14, the binding result with human IL-23 was “binds”.

The Kd is the concentration at which binding is half-saturated. Low readings indicate a tighter complex, high ones a looser complex.

The record behind these values is patent US20140057830A1 (COMPLIX, published 2014).
